Test [1] has as its target T1, displayed FcCH3A, A205 (E357D/S364W/K370E), on yeast cell surface (human, UniProt P0DOX5 227-449 = IgG part).
T1 construct: also called A205 CH3A chain (yeast)
T1 Fc: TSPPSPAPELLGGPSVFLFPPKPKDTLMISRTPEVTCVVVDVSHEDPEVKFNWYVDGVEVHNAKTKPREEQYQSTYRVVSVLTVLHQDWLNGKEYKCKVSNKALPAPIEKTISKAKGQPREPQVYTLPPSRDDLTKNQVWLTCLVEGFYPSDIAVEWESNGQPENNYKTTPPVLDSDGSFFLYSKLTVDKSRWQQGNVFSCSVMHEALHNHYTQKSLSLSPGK
As to the kind of experiment: flow cytometry of diploid yeast: MFI of Flag-tagged secreted FcCH3B held on displayed FcCH3A (anti-Flag mouse mAb and PE anti-mouse antibody), normalised to EW-RVT = 100 %. From the text: (§1) FACS was sequentially performed four times. […] Table 9 below summarizes the mutation pairs introduced into individual clones selected from the respective LibA2 and LibB2 libraries.
A general note: Flow cytometry measures light scatter and fluorescence of single cells or particles in a stream.

For test [2], the target named is T2, displayed FcCH3A, B212 (K392I/D399L), on yeast cell surface (human, UniProt P0DOX5 227-449 = IgG part).
T2 construct: also called B212 CH3A chain (yeast)
T2 Fc: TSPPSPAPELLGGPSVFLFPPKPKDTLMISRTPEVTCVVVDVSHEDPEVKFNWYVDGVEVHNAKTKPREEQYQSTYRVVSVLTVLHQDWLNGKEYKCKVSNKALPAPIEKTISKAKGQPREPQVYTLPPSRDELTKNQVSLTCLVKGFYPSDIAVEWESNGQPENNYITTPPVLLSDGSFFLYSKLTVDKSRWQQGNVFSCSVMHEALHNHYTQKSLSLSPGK
Described as above.
Source text: as §1

Test [3] concerns the target T3, displayed FcCH3A, A241 (E357N/S364W/K370E), on yeast cell surface (human, UniProt P0DOX5 227-449 = IgG part).
T3 construct: also called A241 CH3A chain (yeast)
T3 Fc: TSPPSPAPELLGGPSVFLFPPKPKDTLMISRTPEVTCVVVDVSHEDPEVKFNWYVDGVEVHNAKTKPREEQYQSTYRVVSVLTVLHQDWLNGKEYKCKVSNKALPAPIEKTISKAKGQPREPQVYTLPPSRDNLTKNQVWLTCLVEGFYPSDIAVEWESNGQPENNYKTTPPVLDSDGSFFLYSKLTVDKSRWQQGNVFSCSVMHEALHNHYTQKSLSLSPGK
Described as above.
Source text: as §1

Test [4] addresses T4, displayed FcCH3A, A210 (E357A/S364Y/K370E), on yeast cell surface (human, UniProt P0DOX5 227-449 = IgG part).
T4 construct: also called A210 CH3A chain (yeast)
T4 Fc: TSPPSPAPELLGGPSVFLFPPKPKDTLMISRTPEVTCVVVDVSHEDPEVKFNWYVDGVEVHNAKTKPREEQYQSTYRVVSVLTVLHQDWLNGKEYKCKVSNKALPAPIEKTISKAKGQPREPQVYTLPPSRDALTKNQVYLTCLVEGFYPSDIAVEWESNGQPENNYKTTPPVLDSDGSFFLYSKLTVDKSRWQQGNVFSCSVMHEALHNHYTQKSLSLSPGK
The test is described as above.
Source text: as §1

For test [5], the target named is T5, displayed FcCH3A, A216 (E357G/S364W/K370E), on yeast cell surface (human, UniProt P0DOX5 227-449 = IgG part).
T5 construct: also called A216 CH3A chain (yeast)
T5 Fc: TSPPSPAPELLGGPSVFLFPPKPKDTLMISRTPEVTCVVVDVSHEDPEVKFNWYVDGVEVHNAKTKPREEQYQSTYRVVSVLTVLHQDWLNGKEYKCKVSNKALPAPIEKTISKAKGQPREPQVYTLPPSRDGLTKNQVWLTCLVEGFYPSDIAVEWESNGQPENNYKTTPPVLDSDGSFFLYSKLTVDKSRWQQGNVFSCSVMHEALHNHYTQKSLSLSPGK
The description is as above.
Source text: as §1

Test [6] deals with T6, B168w/oW-VT (displayed FcCH3A on yeast cell surface).
T6 construct: also called B168w/oW-VT CH3A chain (yeast), D399L
T6 Fc: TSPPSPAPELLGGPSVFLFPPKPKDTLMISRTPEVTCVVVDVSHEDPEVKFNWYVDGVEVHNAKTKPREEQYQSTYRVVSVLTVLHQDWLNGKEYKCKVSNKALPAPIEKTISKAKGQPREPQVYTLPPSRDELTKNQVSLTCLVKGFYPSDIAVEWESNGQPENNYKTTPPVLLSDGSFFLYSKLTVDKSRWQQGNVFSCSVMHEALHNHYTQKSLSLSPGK
The test is described as above.
Source text: as §1

The target of test [7] is T7, displayed FcCH3A, KiH (Genentech) (T366S/L368A/Y407V), on yeast cell surface (human, UniProt P0DOX5 227-449 = IgG part).
T7 construct: also called KiH CH3A chain (yeast)
T7 Fc: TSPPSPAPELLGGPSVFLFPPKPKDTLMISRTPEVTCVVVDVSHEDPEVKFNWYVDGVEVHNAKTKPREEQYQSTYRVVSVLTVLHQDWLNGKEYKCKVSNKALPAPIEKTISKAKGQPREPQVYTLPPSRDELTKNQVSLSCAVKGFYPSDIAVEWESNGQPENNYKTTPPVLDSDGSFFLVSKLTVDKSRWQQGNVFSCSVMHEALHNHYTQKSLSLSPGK
Description: flow cytometry histogram (PE, FL2-H) of diploid yeast: Flag-tagged secreted FcCH3B held on displayed FcCH3A, anti-Flag mouse mAb and PE anti-mouse antibody. How it is done:
Specifically, the diploid in which the expression of the heterodimeric heavy chain constant region was induced was reacted with an antibody recognizing flag-tag included in the secreted FcCH3B (anti-Flag mouse mAb, F3165) (Sigma-Aldrich) and an antibody conjugated with PE (phycoerythrin conjugated anti-mouse mAb, sc-3738) (Santa Cruz biotechnology), and a signal of PE was analyzed by flow cytometry.

Test [8] concerns the target T8, displayed FcCH3A, B215 (K392R/K409R/D399L), on yeast cell surface (human, UniProt P0DOX5 227-449 = IgG part).
T8 construct: also called B215 CH3A chain (yeast)
T8 Fc: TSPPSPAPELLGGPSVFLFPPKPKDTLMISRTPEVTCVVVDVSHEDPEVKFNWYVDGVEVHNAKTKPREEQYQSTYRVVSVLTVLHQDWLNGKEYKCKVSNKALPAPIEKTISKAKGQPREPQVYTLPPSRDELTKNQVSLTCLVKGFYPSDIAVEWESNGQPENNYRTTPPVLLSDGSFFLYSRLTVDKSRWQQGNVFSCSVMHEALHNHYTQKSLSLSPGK
As to the kind of experiment: flow cytometry of diploid yeast: MFI of Flag-tagged secreted FcCH3B held on displayed FcCH3A (anti-Flag mouse mAb and PE anti-mouse antibody), normalised to EW-RVT = 100 %.
Source text: as §1

The record followed here is patent US20180346600A1 (AJOU UNIVERSITY INDUSTRY ACADEMIC COOPERATION FOUNDATION, published 2018).

B1: secreted FcCH3B, A205 (E357N/K370R), from yeast (other)
chain: TSPPSPAPELLGGPSVFLFPPKPKDTLMISRTPEVTCVVVDVSHEDPEVKFNWYVDGVEVHNAKTKPREEQYQSTYRVVSVLTVLHQDWLNGKEYKCKVSNKALPAPIEKTISKAKGQPREPQVYTLPPSRDNLTKNQVSLTCLVRGFYPSDIAVEWESNGQPENNYKTTPPVLDSDGSFFLYSKLTVDKSRWQQGNVFSCSVMHEALHNHYTQKSLSLSPGK
notes: also called A205 CH3B chain (yeast); not shown: flag-tag
For the molecule B1, the binding result in test [1] is given as “binds”.

B2: secreted FcCH3B, B212 (D399G/K392G/K409M), from yeast (other)
chain: TSPPSPAPELLGGPSVFLFPPKPKDTLMISRTPEVTCVVVDVSHEDPEVKFNWYVDGVEVHNAKTKPREEQYQSTYRVVSVLTVLHQDWLNGKEYKCKVSNKALPAPIEKTISKAKGQPREPQVYTLPPSRDELTKNQVSLTCLVKGFYPSDIAVEWESNGQPENNYGTTPPVLGSDGSFFLYSMLTVDKSRWQQGNVFSCSVMHEALHNHYTQKSLSLSPGK
notes: also called B212 CH3B chain (yeast); not shown: flag-tag
Take B2: the binding result in test [2] is “binds”.

B3: secreted FcCH3B, A241 (E357N), from yeast (other)
chain: TSPPSPAPELLGGPSVFLFPPKPKDTLMISRTPEVTCVVVDVSHEDPEVKFNWYVDGVEVHNAKTKPREEQYQSTYRVVSVLTVLHQDWLNGKEYKCKVSNKALPAPIEKTISKAKGQPREPQVYTLPPSRDNLTKNQVSLTCLVKGFYPSDIAVEWESNGQPENNYKTTPPVLDSDGSFFLYSKLTVDKSRWQQGNVFSCSVMHEALHNHYTQKSLSLSPGK
notes: also called A241 CH3B chain (yeast); not shown: flag-tag
Regarding B3, the binding result in test [3] is “binds”.

B4: secreted FcCH3B, A210 (E357N/K370H), from yeast (other)
chain: TSPPSPAPELLGGPSVFLFPPKPKDTLMISRTPEVTCVVVDVSHEDPEVKFNWYVDGVEVHNAKTKPREEQYQSTYRVVSVLTVLHQDWLNGKEYKCKVSNKALPAPIEKTISKAKGQPREPQVYTLPPSRDNLTKNQVSLTCLVHGFYPSDIAVEWESNGQPENNYKTTPPVLDSDGSFFLYSKLTVDKSRWQQGNVFSCSVMHEALHNHYTQKSLSLSPGK
notes: also called A210 CH3B chain (yeast); not shown: flag-tag
With B4, the binding result in test [4] is “binds”.

B5: secreted FcCH3B, A216 (E357N), from yeast (other)
chain: TSPPSPAPELLGGPSVFLFPPKPKDTLMISRTPEVTCVVVDVSHEDPEVKFNWYVDGVEVHNAKTKPREEQYQSTYRVVSVLTVLHQDWLNGKEYKCKVSNKALPAPIEKTISKAKGQPREPQVYTLPPSRDNLTKNQVSLTCLVKGFYPSDIAVEWESNGQPENNYKTTPPVLDSDGSFFLYSKLTVDKSRWQQGNVFSCSVMHEALHNHYTQKSLSLSPGK
notes: also called A216 CH3B chain (yeast); not shown: flag-tag
With B5, the binding result in test [5] is given as “binds”.

B6: B168w/oW-VT (secreted FcCH3B from yeast) (other)
secreted Fc chain (hinge-CH2-CH3B): TSPPSPAPELLGGPSVFLFPPKPKDTLMISRTPEVTCVVVDVSHEDPEVKFNWYVDGVEVHNAKTKPREEQYQSTYRVVSVLTVLHQDWLNGKEYKCKVSNKALPAPIEKTISKAKGQPREPQVYTLPPSRDELTKNQVSLTCLVKGFYPSDIAVEWESNGQPENNYGTTPPVLDSDGSFFLYSMLTVDKSRWQQGNVFSCSVMHEALHNHYTQKSLSLSPGK
notes: also called B168w/oW-VT CH3B chain (yeast), K392G/K409M
In the case of B6, the binding result in test [6] is on record as “binds”.

B7: secreted FcCH3B, KiH (Genentech) (T366W), from yeast (other)
chain: TSPPSPAPELLGGPSVFLFPPKPKDTLMISRTPEVTCVVVDVSHEDPEVKFNWYVDGVEVHNAKTKPREEQYQSTYRVVSVLTVLHQDWLNGKEYKCKVSNKALPAPIEKTISKAKGQPREPQVYTLPPSRDELTKNQVSLWCLVKGFYPSDIAVEWESNGQPENNYKTTPPVLDSDGSFFLYSKLTVDKSRWQQGNVFSCSVMHEALHNHYTQKSLSLSPGK
notes: also called KiH CH3B chain (yeast); not shown: flag-tag
For the molecule B7, in test [7], the binding result is recorded as “binds”.

B8: secreted FcCH3B, B215 (D399W/K392G/K409M), from yeast (other)
chain: TSPPSPAPELLGGPSVFLFPPKPKDTLMISRTPEVTCVVVDVSHEDPEVKFNWYVDGVEVHNAKTKPREEQYQSTYRVVSVLTVLHQDWLNGKEYKCKVSNKALPAPIEKTISKAKGQPREPQVYTLPPSRDELTKNQVSLTCLVKGFYPSDIAVEWESNGQPENNYGTTPPVLWSDGSFFLYSMLTVDKSRWQQGNVFSCSVMHEALHNHYTQKSLSLSPGK
notes: also called B215 CH3B chain (yeast); not shown: flag-tag
Consider B8, for which the binding result in test [8] is reported as “binds”.
